Measurements from paper PMC7407445, “Role of RadA and DNA Polymerases in Recombination-Associated DNA Synthesis in Hyperthermophilic Archaea”.

Target: RadA recombinase (Pyrococcus abyssi, UniProt Q9V233 1-353)
Experiment: EMSA; no ATP; 25 nM ssDNA, RadA 0-6.4 uM; 20 mM Tris-HCl pH 8.0, 50 ug/mL BSA, 2 mM DTT, 0.5% Triton, 65 C, 10 min; 0.75% native agarose gel
Conditions: protein: recombinant; tags: none (untagged); label: 5' HiLyte Fluor 647; single strand

Chain of RadA recombinase (Q9V233 whole entry): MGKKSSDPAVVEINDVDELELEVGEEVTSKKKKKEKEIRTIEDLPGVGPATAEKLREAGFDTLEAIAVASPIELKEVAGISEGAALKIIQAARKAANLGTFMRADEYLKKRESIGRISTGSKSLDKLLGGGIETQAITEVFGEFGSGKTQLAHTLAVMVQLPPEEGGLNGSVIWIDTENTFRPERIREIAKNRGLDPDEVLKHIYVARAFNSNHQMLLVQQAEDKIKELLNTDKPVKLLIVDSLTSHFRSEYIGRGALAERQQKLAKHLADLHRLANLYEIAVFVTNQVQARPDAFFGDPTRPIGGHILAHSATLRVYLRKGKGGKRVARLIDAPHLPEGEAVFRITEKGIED

B1: L93-5'HL 647 (93-mer ssDNA) (ssDNA)
DNA: AAAGGCGGTAATACGGTTATCCACAGAATCAGGGGATAACGCAGGAAAGAACATGTGAGCAAAAGGCCAGCAAAAGGCCAGGAACCGTAAAAA
B1: binds.
